Measurements from the supplement of paper PMC9732359.
± gives the uncertainty stated by the source.

Experiment: protein stability index of a GFP-peptide fusion (yeast GPS) (PSI 1-4); higher = more stable; sorted into four equal gates, so the index is relative within each strain
Outline: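 Tiled 17-residue yeast protein peptides were fused downstream of GFP in a plasmid that also expresses Cherry, and the pooled library was carried in yeast. Mid-log cultures in leucine-free medium were sorted into four equal gates by GFP/Cherry fluorescence ratio, and plasmids from each gate were PCR-amplified and Illumina-sequenced, with reads assigned to strains by barcodes. The protein stability index for each peptide was each gate's read frequency times its gate number, summed.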

Row | Sequence | protein stability index (doa10∆) | protein stability index (pdr5∆) | protein stability index (san1∆) | protein stability index (ubr1∆)
1 | VLNQQLPIESQFVSKLV [BRR2] | 1.74 ± 0.066 | 1.98 ± 0.048 | 1.96 ± 0.1 | 2.01 ± 0.043
2 | ALTRGEALLVVLVSSVT [RPS12] | – | 3.63 ± 0.26 | 3.52 ± 0.24 | 3.29 ± 0.26
3 | DIYFKLKKLEKEYELLT [RPT3] | 2.74 ± 0.074 | 2.51 ± 0.081 | 2.29 ± 0.14 | 1.98 ± 0.057
4 | YVDFVPMYKELWINYIK [POP4] | 2.33 ± 0.065 | 2.42 ± 0.056 | 2.62 ± 0.068 | 2.7 ± 0.047
5 | NLFGATANANKPAFSFG [YJL041W/NSP1] | 3.05 ± 0.096 | 3.18 ± 0.081 | 3.14 ± 0.074 | 3.12 ± 0.057
6 | TEAEETSIHSTISILAA [RRP43] | 1.28 ± 0.043 | 1.63 ± 0.045 | 1.77 ± 0.068 | 1.37 ± 0.035
7 | MNVTPLDELQWKSPEWI [MED6] | 3.1 ± 0.13 | 3.14 ± 0.1 | 3.19 ± 0.061 | 3.37 ± 0.21
8 | NDLRDMILNYNPSQGVS [UBP6] | 2.21 ± 0.072 | 3.23 ± 0.12 | 3.16 ± 0.077 | 3.18 ± 0.064
9 | NYIYAGYENGMLAQWDL [RPN14] | 2.92 ± 0.13 | 3.07 ± 0.14 | 3.06 ± 0.1 | 3.14 ± 0.078
10 | WAEHLSDEVKRRFYKNW [RPL3] | 3.31 ± 0.2 | 2.9 ± 0.25 | 3.34 ± 0.14 | 3.37 ± 0.17
11 | DSTVVYPLPKFPTTSHE [MED8] | 2.75 ± 0.048 | 3.06 ± 0.051 | 2.92 ± 0.046 | 3.02 ± 0.054
12 | AAAGAAMIDAGALEEIT [FAS2] | 2.72 ± 0.15 | 2.96 ± 0.11 | – | 2.73 ± 0.1
13 | TITTILILGLNTSIAQF [YML103C/NUP188] | 1.83 ± 0.039 | 1.67 ± 0.045 | 2.32 ± 0.076 | 2.28 ± 0.04
14 | GKEFGTTPEKPEETPLE [FAS2] | 2.77 ± 0.095 | 2.7 ± 0.076 | 2.6 ± 0.059 | 2.81 ± 0.069
15 | FLFAPELGAINLHALSM [SWI1] | 1.84 ± 0.087 | 2.05 ± 0.08 | 2.49 ± 0.12 | 2.17 ± 0.056
16 | RQFLKANKTNLIESLNT [YML103C/NUP188] | 2.76 ± 0.053 | 2.97 ± 0.062 | 2.87 ± 0.047 | 2.99 ± 0.039
17 | AVQNESVSSPIELNFDA [QCR2] | 2.95 ± 0.059 | 2.95 ± 0.061 | 2.86 ± 0.065 | 3.06 ± 0.042
18 | NFIEPGINQILGNEKNQ [CDC53] | – | – | – | 2.75 ± 0.2
19 | KQEIMMSDLFTFDWFIK [ISW2] | 2.85 ± 0.075 | 2.6 ± 0.055 | 2.46 ± 0.07 | 2.9 ± 0.047
20 | RNIILEARFDVLITSYE [ISW2] | 2.85 ± 0.11 | 2.22 ± 0.076 | 2.41 ± 0.088 | 2.61 ± 0.074
21 | SRGGVTQVRVEFLEDTS [RPS28A] | 3.41 ± 0.071 | 3.15 ± 0.058 | 3.16 ± 0.052 | 3.22 ± 0.05
22 | SKRPQLGEIPNPMKKHK [SIR4] | 2.44 ± 0.075 | 2.53 ± 0.059 | 2.23 ± 0.089 | 2.69 ± 0.079
23 | MTRSSVLADALNAINNA [RPS22A] | 2.86 ± 0.052 | 3.27 ± 0.056 | 2.72 ± 0.054 | 2.99 ± 0.045
24 | KEKLIGWYHSGPKLRAS [RPN8] | 2.16 ± 0.055 | 2.41 ± 0.045 | 2.53 ± 0.051 | 2.63 ± 0.042
25 | SGEKIDFLLSDWNKRFS [BRR2] | 2.37 ± 0.061 | 2.72 ± 0.055 | 2.88 ± 0.067 | 2.79 ± 0.056
26 | LPYERHMISQEGIKETQ [SWI1] | 1.22 ± 0.066 | 1.23 ± 0.073 | 1.3 ± 0.14 | 1.27 ± 0.065
27 | RVRAESLHSNSFSLTVS [YJL039C/NUP192] | 1.74 ± 0.066 | 1.76 ± 0.072 | 1.43 ± 0.17 | 1.75 ± 0.064
